Test results from article PMC8049198.

Biological target: human prion protein (hPrP), amino acid residues 23-230 (human) (UniProt P04156)
Experiment: high-speed atomic force microscopy (HS-AFM)

Substance: human prion protein (hPrP), amino acid residues 23-230, P04156 23-230 (domain or fragment; other documents disagree on this pair)
- stoichiometry N: 6
